Values joined by “and” are separate entries in the source; they are usually repeats but may differ in a detail not shown here. Identical values can stand only once. “Also recorded” adds a separate entry of the source.
Tests used:
[1] = target: T1, pT peptide (Rad 9-pT: SLEVpTEADATFYAKK) (Saccharomyces cerevisiae, UniProt P14737); assay: Isothermal titration calorimetry (ITC); assay type: binding, yeast; details: in solution by ITC; FHA1 domain 35 μM in cell; listed as WT FHA1 domain
T1 construct: host or cells: chemical synthesis
Method: A fixed amount (10 μL) of the pT peptide (Rad 9-pT: SLEVpTEADATFYAKK (SEQ ID NO:9); 500 μM) was injected from the syringe into the sample cell containing the FHA1 domain (35 μM). […] Each measurement was repeated three times.
The affinity of the G2 variant and the WT FHA1 domain to the pT peptide (SLEVpTEADATFYAKK) (SEQ ID NO:9) was determined by ITC (FIG. 12). The sample cell contained the purified FHA1 domains (35 μM) and the injection syringe was filled with the pT peptide (350 μM). […] The FHA1 domains bound to the pT peptide with a stoichiometry of 1:1, and the ITC graph was fitted by the single site binding model.

[2] = target: T2, Rad9-pT peptide (Saccharomyces cerevisiae, UniProt P14737); assay: ELISA of GST fusions of FHA1 domains; assay type: binding, yeast; details: expressed in bacterial cytoplasm as GST fusion; listed as WT FHA1 domain
T2 construct: host or cells: chemical synthesis
Method: For production of FHA1-GST fusion protein, BL21 DE3 cells (10 mL; Stratagene) harboring the expression vector was grown overnight at 30° C. using the Overnight Express™ Autoinduction System 1 (Novagen). The next day, cells were lysed using BugBuster® 10× Protein Extraction Reagent (Novagen) following the manufacturer's instructions. Cell lysate (100 μL diluted 1:5 with PBST) was incubated with the biotinylated peptides as described above and detected using anti-GST antibody conjugated to HRP (diluted 1:10,000 with PBST; GE Healthcare).

B1: WT: N-terminal FHA1 domain of S. cerevisiae Rad53 protein kinase, residues 1-170 (SEQ ID NO:7) (protein, listed as Saccharomyces cerevisiae)
chain: MENITQPTQQSTQATQRFLIEKFSQEQIGENIVCRVICTTGQIPIRDLSADISQVLKEKRSIKKVWTFGRNPACDYHLGNISRLSNKHFQILLGEDGNLLLNDISTNGTWLNGQKVEKNSNQLLSQGDEITVGVGVESDILSLVIFINDKFKQCLEQNKVDRIRSNLKNT
B1 was tested, and the Kd [1] was ~1000 nM and 1000 nM and the “binding of GST fusion to Rad9-pT peptide” value [2] was “bound specifically; also recorded: showed specific binding”.

Source: patent US9097721B2, “Compositions comprising engineered phosphothreonine affinity reagents, methods of making, and methods of use” (The Board of Trustees of the University of Illinois, priority 2012, dated 2015)
